# Data published in patent publication US20230338465A1 (VITRUVIAE, published 2023).
# Values joined by “and” are separate entries in the source; they are usually repeats but may differ in a detail not shown here. Equal values may be shown once. Read-outs that look alike come from different tables or passages of the source.
# T1: Zika Virus Envelope Protein (Zika virus)
# T1 chain: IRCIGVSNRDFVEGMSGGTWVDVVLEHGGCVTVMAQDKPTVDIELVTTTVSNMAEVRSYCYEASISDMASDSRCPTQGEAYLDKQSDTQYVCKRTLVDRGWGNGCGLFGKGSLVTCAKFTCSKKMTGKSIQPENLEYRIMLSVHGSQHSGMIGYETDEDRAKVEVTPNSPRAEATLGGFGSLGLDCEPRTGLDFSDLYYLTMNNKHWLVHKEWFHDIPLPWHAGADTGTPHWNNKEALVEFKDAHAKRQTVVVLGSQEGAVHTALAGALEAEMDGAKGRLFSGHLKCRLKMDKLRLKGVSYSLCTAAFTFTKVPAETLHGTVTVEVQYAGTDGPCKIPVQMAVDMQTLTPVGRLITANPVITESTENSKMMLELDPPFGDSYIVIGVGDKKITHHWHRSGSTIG
# B1: VP025-CT (co-transfected product of genes TM-G4-A-DC and CT-G4-B-DC, heterodimer mixture) (Fc fusion)
# chain 1: SVKVGGEAGPSVTLPCHYSGAVTSMCWNRGSCSLFTCQNGIVWTNGTHVTYRKDTRYKLLGDLSRRDVSLTIENTAVSDSGVYCCRVEHRGWFNDMKITVSLEIVGGGGSGGGGSGGGGSKYGPPCPPCPAPEAAGGPSVFLFPPKPKDTLMISRTPEVTCVVVDVSQEDPEVQFNWYVDGVEVHNAKTKPREEQFNSTYRVVSVLTVLHQDWLNGKEYKCAVSNKGLPSSIEKTISKCKGQPREPQVYTLPPSQEEMTKNQVSLTCLVKGFYPSDIAVEWESNGQPENNYKTTPPVLDSDGSFFLYSRLTVDKSRWQEGNVFSCSVMHEALHNHYTQKSLSLSLGK
# chain 2: ERLCHPCPWEWTFFQGNCYFMSNSQRNWHDSITACKEVGAQLVVIKSAEEQNFLQLQSSRSNRFTWMGLSDLNQEGTWQWVDGSPLLPSFKQYWNRGEPNNVGEEDCAEFSGNGWNDDKCNLAKFWICKKSAASCSGGGGSGGGGSGGGGSKYGPPCPPCPAPEAAGGPSVFLFPPKPKDTLMISRTPEVTCVVVDVSQEDPEVQFNWYVDGVEVHNAKTKPREEQFNSTYRVVSVLTVLHQDWLNGKEYKCAVSNKGLPSSIEKTISKCKGQPREPQVYTLPPSQEEMTKNQVSLTCLVKGFYPSDIAVEWESNGQPENNYKTTPPVLDSDGSFLLYSKLTVDKSRWQEGNVFSCSVMHEALHNHYTQKSLSLSLGK
# notes: also called VP025-CT (heterodimer mixture)
# B2: VP019-F2 (multimer fraction F2 of VP019, V-TIM1-1 with V-IGG4-ADC-A-Fc) (Fc fusion)
# chain: B1 chain 1
# notes: also called TM-G4-A-DC; VIT-307
# B3: VP020 (V-CTLD-1 with V-IGG4-ADC-B-Fc) (Fc fusion)
# chain: B1 chain 2
# notes: also called CT-G4-B-DC; VIT-308
# Key:
# Experiment in all cases: ELISA, 2.5 mM CaCl2
# Chikungunya Virus E1 = Chikungunya Virus E1 (Chikungunya virus)
# [1] = target: T1, Zika Virus Envelope Protein
# [2] = target: T1, Zika Virus Envelope Protein
binder,measurement,setting,value
B1,EC50,Chikungunya Virus E1,10.2 µg/mL and 122 nM
B2,EC50,[1],12.2 nM
same,EC50,[2],1 µg/mL
B3,EC50,[1],85.1 nM
same,EC50,[2],7.4 µg/mL
